This series can be described thus: purified protein yield per well (BCA); higher = higher soluble expression. On the procedure: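 Candidate PET hydrolases were expressed in E. coli C41(DE3) in 2 mL autoinduction cultures in 24-deep-well plates, Ni-bead purified and released by SUMO protease cleavage on an OT-2 robot. Yield per well was measured by BCA; values below 25 ug (0.1 mg/mL) are below the detection threshold. Melting temperature was measured by differential scanning fluorimetry with Sypro Orange, ramping from 25 C at 0.3 C/step.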

Take “IENGPAPTFSSVQADGPFAVSTQTVRGSGFGGGTVYSPNTAGKYAVVAVCPGFTATQTSIALISRRLATHGFVVVTINTNTVYDYPASRANQLLAALRTVTALTTGPVAGKMDTSRQAVSGWSMGGGGAMLAAGMTPGLKAGVAFAPWSLTNNVGSSAVPMAYLAGTADTVAPASVHSSVFYNATPATTKKLIGVIQGADHYFPGTASQPASYTQVAWMKRFLDGDTRYSQFLNGDTRFATFRSTGPF [ESM109]”: the “purified protein yield per well” value is < 25 µg.
Next, “WLTSAASPVRARVDANRLGVGGHSMGGGGAIEAASEMPSLKASIGFEPWNGIGSWPGVRVPTMIQGAQNDNIAPVAQHSEPFYNSMTNAPEKAYAEFTGASHFFSGQAGPATTRLSVSWYKRFLDNDTRYDQFLCPGPRSPEVVEYRNTCPLTTPGGGGGTTTTTGPGTTTTTRPTTTTTAPPAQCQWWEWWCWLGWG [TEP046]”: < 25 µg.
In the case of “RPSAENPYERGPAPTVASIEAARGPFGTAETRVSATAVRGFGGGTIYYPTDTSQGTFGAVAVAPGFTASQSSMSWLGPRLASQGFVIFTIDTLGRYDQPAARGDQLLAALDYLTQSSSVRGRIDGSRLAVMGHSMGGGGSLEAAKDRPALQAAIPLTPWNATKNWSSVRTPTLIIGAERDSVASVAAHSEPFYASLPSTLDRAYLELAGASHFAPNVANVTIAKYSISWLKRFVDNDTRYEQFLCPLPSGSAISEYRGNCPHQG [TEP152]” it was < 25 µg; in that of “DGPYDVDWIYESDGLRNGPYYLGATLYYPINTSESLASIVIVPGWGMPESSIQNWGPFFASWGIIAMTIGTNNPYDWPEERAEALLDAIETIKQENVRSDSPVYGMVDINSFAVCGYSMGGGGAQWAATIDSYLDAVVALNPALAIYDTINCTDPEFDYYCLVPEHLNHSTPVLIITGENEDANGTSATGYNHYEYTPNATDKMFFQVSNSGHEAAYGPYGANGEVGEKSMQWLKFHLFCLEFLNIIKLQRKLKMI [TEP020]”, < 25 µg.
For “QENPFERGPDPTERSIEAPRGPFATATTTVARGGVQGFGGGTIYYPTDTSEGTFGAVAISPGFTESQSAISWYGQRLASQGFVVFTIDTNGIFDFPDQRGDQLLAALDYLTTHSTVADRIDADRLGVLGHSMGGGGSLSAVDERTELQAAIPLAPWHLNQNWSGVDVPTMIIGGETDFIAPVDTHAEPFYQSLPSSLDKAYLEMKGKGHFVTNSPNTVIAKFAISWLKRFIDNDTRYERFLCPAPSPDAEISEYRDTCPH [TEP078]”, the “purified protein yield per well” value is < 25 µg.
In the case of “CADRPPVQDEDPAPTAASLAAPLGPYRTSTATVPRGLTEAFGGGTIYYPSGRPRGDTFGGVIIAPGRNGNQGGMAWYGPLLASRGFVVFAIDTLHLKDRPAARAHELEAAMTYLTVRSPVATLVDADRLAVMGHSFGGGAALETAADRPTLRAAIPLMPYDKGREFSNVRVPTLVVAAQNDKIAPVSRHARRFYRSIPASSGKGYLEIAGTTHSSPKKPNTTLAAYVIAWLKRYVDGDERYERFLCPGPIDDPSVALYRNPCS [TEP060]” it was < 25 µg; in that of “CDSILSQSLTNTGPYNVLSINESDGIRNGQHYNGATIFYPEGNLTNLASMVFVPGYSNTQLSIQNWGFFLASHGIVTMTIGTNSLLDSHIKRKDALLDALVTVKQENVRVSSPLYNSLDTLKLALGGFSKGGGGAQLAASVGQNIKAIIALYPWLENISSSDLNHNVPVLIVSGSLDIIAPPSLHADVHYMYTPQTTNKLKYELAFGTHDPLTGPNAGSGEVGKKTLSWLQTFLLSDTCFCPYLLDTPNNASIYMSNLNCTEIGTNTNNLQSNTEKKLVKIIDVFGREVSPKKNMILFYVYDNQSVKKIIIK [TEP094]”, < 25 µg.
In the case of “DSQNPYERGPVPTLESITAESGPFAIGSVTVPAGSGQGFNSGTVYYPTDTSKGTFGAIAIMPGFLASQSDIAWYGPRLASHGFVVMTLNTSALWDFPADRSRQQLAALTYLTAQSTVKNRIDPGRLAVMGWSMGGGGSLQSAASTPSLKAAIPLAPWDLSNVSSRITVPTMIFGADGDTVASVDDFARPFYNGLANAPDKSLIVLKGTDHFTFAKPNTTIARYSVSWLKRFVDNDTRYDQFLCPTPNDPNTVVLQITCPL [DP028]” it was < 25 µg.
In the case of “RPSSAATSLAATQRGPDPTVAMIEATRGPFATAQVSVPSGHGFGGGMIYYPTDTSLGTWGALAIVPGYSALFANEEAWMGPWLSSFGFVVIGVETNTRTDSDSQRAAELQAALDYLTTQSPVRNQVDPTRLSVLGHSAGGAGAIEEAEQHPSLRALIGLAPGFPGQGLSMATDKVPSLIIGGQADGTVTPSYLANLYGTLPASTQSAFAQIAGADHVYYTHPNNVEMKLIIPWLKLFVDGDNRYQQFLCPALPDPSTISAYQPKCPYTPPGGSTSSSSSSTTTTTTTTSTTPTSTSSSPSGSCSATYQTQNYWPGGFQGLVTVTAGSAPISKWTVKWTLSSGQTITQVWNGTLSTSGSAVSVANVSYNGSLSPGTSTTFGFLANGPTSAPTLSCTGS [ESM039]” it was < 25 µg.
As to “RPAPATTAASQSTQRGPDPTVAMIEATRGPFATAQVSVPAGHGFGGGMIYYPTDTSQGTWGALAIVPGYSALFANEEAWMGPWLSSFGFVVIGVETNTRTDSDSQRAAEVLAALDYLTTQSPVRNEVDPARLSVLGHSAGGAGVIEAAEQRPSLRALIGLAPGYPGQGLSMATDQVPALVVGGQADTTVTPSYLANLYGTLPASTQSDFAQIAGADHVYYTHPNNVEMKLIIPWLKLFVDSDSRYEQFLCPSLPDPSTISAYQPKCPYTPPGGSSSSSSSSSSSSASSSSPTTPTTTTSSTPSTSCTATYQTQNSWPGGFQGLVTVTAGPAAISSWTVKWNLSSGQSITQVWSGTLSTSGSAVSVGNASYNGSLAPGASATFGFLADGSPSTPTLSCTGS [ESM120]”, the “purified protein yield per well” value was < 25 µg.
Regarding “RSGPYQVAYYTQLPPVPEFGAATLYFPANKGQDFSGVVIAPGYIEQQENISWWGNHLASHGFAVLTIDTNSLQDNPQLRAEALMAGVELLRGENTRMGGTLRGKFHEQQMAVMGHSMGGGGALLAANNSGGELKAAIPLTPWLPDGDFGAVAVPTLLISGETDRIAAVADHARLHYQSLPEELTKMYLEIKGGNHFIANSIVENEGLNPNIDVRDLVGGMA [TEP023]”, the “purified protein yield per well” value was < 25 µg.
In the case of “ADNPYQRGPDPTVASVAATRGTFATAQLTVPPGNGFGGGYIYYPTDTSHGTWGAVAIVPGYSALFANEEAWMGPWLASFGFVVIGVETNTRSDGADARATELLAALDYLTQQSAVRDRVDAGRLAVMGHSAGGAGTILAAERRPALKAAVGLAPGTPGSLSLATDKVPMMVIGGQTDPTVTPAYLDNLYAGMPTTTPSDFVQIAGADHLFFTRANNTEMKVLIPWLKIFLDNDTRYTQFLCPSLADPSGISLYRSKCPYLPPGTTSPSPSSSVTPSSPSSPSSPSTGCTAGYRTVGQWPGGFQGEVTVTAGSAAISGWTVNWTLGSGQSVTQLWNGTLTTSGSAVTVRNASYSGSVPAGGSVVFGYLADGTPSTPLLTCTGQ [ESM032]” it was < 25 µg; in that of “VENGPAPTLASVQADGPYAVSTQSVSGTGFGGGTVYSPNTAGKYAVVAVCPGFTATQSSIAAISRRLATHGFVVVTINTKSTYDFPPSRANQILAALRTVTALTTGPVAGKMDISRQGVAGWSMGGGGAMLAAGMTPGLKGGVAFAPWAQSSNVSSSAVPMSYLAGSADGVAPPSMSTSFYNATPGTTRKMLGVIRGADHNFPKTASQPASYTQVAWMKRFLDSDTRYSQFLNGDSRFSTFRSTGPF [ESM088]”, < 25 µg; in that of “VQIGPAPTSAALNKDGTFSVSSTSVSSLSARGFGGGTIYYPTTAGQYGVIAVCPGYTGTSSSISWFARRLATHGFVTIAMNTTTTLDQPDSRATQLAAALKCVLSNSTVKSRIRSTDRGVAGHSMGGGGTLIASQSDSSLRVGIPMTPWNLSTNFSAVKVPQMIFGADGDTIAPYASHARPFYNSINKTQKAYGLLKSATHFTPNSTDQRIGRYGVAFAKRFVDGDTRYSAFLCGAEHSSYATSSKFATYLSNCPY [ESM154]”, < 25 µg.
Next, “DPTAFAVHGPDPTAQSVQAQRGPYATSRTTVSSGTGFNRGTIYYPTTTSEGTFSAVAVIPGFTESESTMSWYGTTLSSHGFVVFTLEAEGGLDFPDARADQLLAALDYLVNSSSVRDRVDRNRLGVMGHSMGGGGTLEAANERPSLRAAIPLAAWHNTKNFPQVQAATLVISAEGDSVASPASHSEPFYQGLRSAEKAYLELNNGNHFTTNSYTPTVTKYAVSWLKRFLDDDTRYSQFLCPPPPPDSNINEYRHTCPV [DP055]”: < 25 µg; “AQPQKGPDPTEQLVKSQTGPFDIARTSVPAGSGRGFNKGTLYYPTDTSQGAYAAVAVIPGFFEGEYTQSWFGPALASHGFVVFTLETHGLFDFPDQRGDQLIAALDWLVASSPVKDRVDPARLAVMGHSMGGGGTLAAANKRPSIKAAVALTPWHMTKRFPGIEAATMIIGAQSDSIASVSGHAEPMYAALTSPDEHAYVELTGGHFVTNSYTATNMRFILPWLKRFLDSDTRYSPFVCPGPAQDSTFVEYRNTCPV [TEP047]”: < 25 µg; “DEIGQAPTAANITGDGSFSTSSSAIFGQSGFGGGTAYYPNTAGKYPVVAFAPGFLSDWNALNWLGPRVASWGFVVVGVNTNTPFDFPDARGDQLLAALNWAVNSAPAAVRDKADGSRRGVSGWSMGGGGTLEALAKDTTGTVKAGVPLAPWHTNKTWSKVTEPVFIIGGQNDSVAAPASHAIPFYNSLGGPKSYLERAGADHFFPTKSNGTVSRAVVSFFKRHVSADTRFTPFLCGFSGLDVSNFRSNSC [ESM030]”: < 25 µg.
Next, “APAHHAAPAHAAAHHHAPFAVRATVVPKTAVKAFGGGVIYTPQDTGKPVLGAVVITPGFTNTNADEKQLGELVASQGFVAFVIDTLDTGDLPDQRATEILAAADYLTGQSAVRSEVSAKDVGLIGYSFGGGGTMQAAQARPSIKAAIGLMPFDFPPASDPDAQYPAYPKLTTPTLVITGQKDDVADPADFGKPAYDSIPAGTPKQYLELKGLDHYAGEHAPVAAIRNAVTAFLKRYLDGNSAYAKFICPAPKVGGPITASYSSCPKG [ESM112]”: < 25 µg; “ADNPYQRGPDPTLAGVAASRGPFATAQMSVAPGNGFNGGTVYYPTDTSAGTWGAVAIVPGYTALFADEEAWMGPWLSSFGFVVIGIETNSRTDYDAARGTQLLAALDYLTQRSPVRDRVDTSRLSVIGHSMGGGGVVYASEHRPSLKAAVALAPFSPSQNMSTDQVPTMVMAGQNDTVVTPSYLDGLYATMPAAAQSDFVQIAGADHVYYTHPQSTEMRLLIPWLKIFVDNDTRYTQFLCPSLADPSGISIYHSKCPYVPPGGTTSGGTTSGGTTTGGTTTGGTTTGGTTTGGTTTGGTVGGGTTSGGTSGGACTATYTTVNTWSGGFQGEVKVTAGGQPISGWTVRWTLGSGQSISQVWNGAVTTSGSDVSVGNVSYNGSLQPSTSTTFGFLGAGAPTDASLSCTSP [ESM049]”: < 25 µg.

The values are drawn from the supplement of paper PMC12455559.
